Each block holds one molecule with its values, some of them ahead of it.
How the values were obtained:
[1] = target: PaRrp4-exosome (Pyrococcus abyssi) (UniProt Q9V120)
[2] = target: PaCsl4-exosome (Pyrococcus abyssi)
[3] = target: PaRrp4-exosome (Pyrococcus abyssi) (UniProt Q9V120); remark: listed apart in the source
[4] = target: PaCsl4-exosome (Pyrococcus abyssi); remark: listed apart in the source
[5] = target: RNase PH ring (PaRrp41-PaRrp42 complex) (Pyrococcus abyssi)
PaSBDS [6] = target: T1, PaSBDS (Pyrococcus abyssi, UniProt Q9V121 1-236); assay: EMSA; 50-400 pmol; 1 pmol RNA in 20 ul; 20 mM Tris-HCl pH 8.0, 20 mM KCl, 2 mM MgCl2, 1 mM DTT, 100 ug/ml BSA, 0.8 U RNasin (or conditions of earlier work, ref 21), 37 C, 30 min; settings: protein: recombinant, tags: pET-28a vector, Ni-NTA purified (His tag), label: 5'-32P
PaRrp41;PaRrp42;PaRrp4 [7] = target: T2, PaRrp41;PaRrp42;PaRrp4 (Pyrococcus abyssi;Pyrococcus …, UniProt Q9V119;Q9V118;Q9V120 1-249;1-274;1-265, ||); assay: EMSA; 10 mM NaH2PO4, 65 C, 15 min; 1 pmol RNA in 20 ul; 20 mM Tris-HCl pH 8.0, 20 mM KCl, 2 mM MgCl2, 1 mM DTT, 100 ug/ml BSA, 0.8 U RNasin (or conditions of earlier work, ref 21), 37 C, 30 min; settings: protein: recombinant;recombinant;recombinant; tags: pET29a vector;pAE vector;; chain copies: 3;3;3; label: 5'-32P; can form intra- and inter-strand base pairs of low stability
T2 sequence 1: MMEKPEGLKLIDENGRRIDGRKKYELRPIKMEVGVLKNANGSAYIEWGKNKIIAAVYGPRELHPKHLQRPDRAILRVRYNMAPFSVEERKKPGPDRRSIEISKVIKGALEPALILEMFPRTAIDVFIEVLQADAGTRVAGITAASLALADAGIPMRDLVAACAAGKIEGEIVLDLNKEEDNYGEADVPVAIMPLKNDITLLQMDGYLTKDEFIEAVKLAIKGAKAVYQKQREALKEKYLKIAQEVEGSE
T2 sequence 2: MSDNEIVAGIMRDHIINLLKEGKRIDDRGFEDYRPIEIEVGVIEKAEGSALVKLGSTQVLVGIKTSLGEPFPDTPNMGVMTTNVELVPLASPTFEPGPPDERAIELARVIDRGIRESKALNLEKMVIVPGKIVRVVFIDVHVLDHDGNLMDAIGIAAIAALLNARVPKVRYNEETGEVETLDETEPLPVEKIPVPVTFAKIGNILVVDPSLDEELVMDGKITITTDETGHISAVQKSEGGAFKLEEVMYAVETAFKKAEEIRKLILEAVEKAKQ
T2 sequence 3: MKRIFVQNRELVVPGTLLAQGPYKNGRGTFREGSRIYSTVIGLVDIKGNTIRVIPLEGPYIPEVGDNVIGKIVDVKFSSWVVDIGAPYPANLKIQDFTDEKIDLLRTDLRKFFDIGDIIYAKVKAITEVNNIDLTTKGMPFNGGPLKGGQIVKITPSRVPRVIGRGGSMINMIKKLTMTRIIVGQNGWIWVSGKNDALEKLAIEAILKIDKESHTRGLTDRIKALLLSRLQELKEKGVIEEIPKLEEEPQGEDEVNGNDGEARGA

PaRrp41;PaRrp42;PaCsl4 [8] = target: T3, PaRrp41;PaRrp42;PaCsl4 (Pyrococcus abyssi;Pyrococcus …, UniProt Q9V119;Q9V118;Q9V2M2 1-249;1-274;1-199, ||); assay: as above; settings: protein: recombinant;recombinant;recombinant; tags: pET29a vector;pAE vector;pET28a vector; chain copies: 3;3;3; label: 5'-32P; can form intra- and inter-strand base pairs of low stability
T3 sequence 1: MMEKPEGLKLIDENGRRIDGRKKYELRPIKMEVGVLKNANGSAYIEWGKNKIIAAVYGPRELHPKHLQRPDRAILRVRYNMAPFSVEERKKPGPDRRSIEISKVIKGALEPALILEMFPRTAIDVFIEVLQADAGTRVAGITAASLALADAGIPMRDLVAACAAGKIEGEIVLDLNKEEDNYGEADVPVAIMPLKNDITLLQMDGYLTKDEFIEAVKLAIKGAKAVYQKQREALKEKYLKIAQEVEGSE
T3 sequence 2: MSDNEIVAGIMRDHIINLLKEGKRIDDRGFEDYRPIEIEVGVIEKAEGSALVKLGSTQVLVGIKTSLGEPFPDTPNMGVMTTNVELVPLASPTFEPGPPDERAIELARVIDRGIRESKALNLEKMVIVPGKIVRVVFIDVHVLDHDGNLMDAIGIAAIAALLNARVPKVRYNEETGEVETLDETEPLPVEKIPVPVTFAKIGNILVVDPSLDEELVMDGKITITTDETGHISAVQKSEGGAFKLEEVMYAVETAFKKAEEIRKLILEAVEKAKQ
T3 sequence 3: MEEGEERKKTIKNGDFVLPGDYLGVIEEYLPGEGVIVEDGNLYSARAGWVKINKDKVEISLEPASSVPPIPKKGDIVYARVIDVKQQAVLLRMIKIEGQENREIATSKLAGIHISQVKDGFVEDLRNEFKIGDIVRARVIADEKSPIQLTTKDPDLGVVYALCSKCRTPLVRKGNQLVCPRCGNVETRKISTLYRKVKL

PaRrp41;PaRrp42 [9] = target: T4, PaRrp41;PaRrp42 (Pyrococcus abyssi;Pyrococcus abyssi, UniProt Q9V119;Q9V118 1-249;1-274, |); assay: EMSA; 10 mM NaH2PO4, 65 C, 15 min; less efficient than holo-exosomes; 1 pmol RNA in 20 ul; 20 mM Tris-HCl pH 8.0, 20 mM KCl, 2 mM MgCl2, 1 mM DTT, 100 ug/ml BSA, 0.8 U RNasin (or conditions of earlier work, ref 21), 37 C, 30 min; settings: protein: recombinant;recombinant; tags: pET29a vector;pAE vector; chain copies: 3;3; label: 5'-32P; can form intra- and inter-strand base pairs of low stability
T4 sequence 1: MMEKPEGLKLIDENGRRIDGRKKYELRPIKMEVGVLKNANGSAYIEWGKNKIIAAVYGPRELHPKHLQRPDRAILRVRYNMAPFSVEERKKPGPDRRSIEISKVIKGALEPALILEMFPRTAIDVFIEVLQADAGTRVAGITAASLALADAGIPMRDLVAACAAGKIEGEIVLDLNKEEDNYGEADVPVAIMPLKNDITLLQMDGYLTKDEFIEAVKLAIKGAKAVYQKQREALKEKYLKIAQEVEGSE
T4 sequence 2: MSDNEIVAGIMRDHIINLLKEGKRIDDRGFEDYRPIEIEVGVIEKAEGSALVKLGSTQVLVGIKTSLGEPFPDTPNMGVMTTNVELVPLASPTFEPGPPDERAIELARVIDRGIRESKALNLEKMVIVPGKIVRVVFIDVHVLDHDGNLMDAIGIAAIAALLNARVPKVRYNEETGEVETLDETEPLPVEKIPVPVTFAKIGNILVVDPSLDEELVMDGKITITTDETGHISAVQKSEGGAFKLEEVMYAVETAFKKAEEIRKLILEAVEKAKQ

PaRrp41;PaRrp42;PaRrp4 [10] = target: T2, PaRrp41;PaRrp42;PaRrp4; assay: EMSA; no phosphate added; 9-fold vs PaCsl4-exosome; 1 pmol RNA in 20 ul; 20 mM Tris-HCl pH 8.0, 20 mM KCl, 2 mM MgCl2, 1 mM DTT, 100 ug/ml BSA, 0.8 U RNasin (or conditions of earlier work, ref 21), 37 C, 30 min; settings: protein: recombinant;recombinant;recombinant; tags: pET29a vector;pAE vector;; chain copies: 3;3;3; label: 5'-32P; single strand
PaRrp41;PaRrp42;PaCsl4 [11] = target: T3, PaRrp41;PaRrp42;PaCsl4; assay: EMSA; no phosphate added; 1 pmol RNA in 20 ul; 20 mM Tris-HCl pH 8.0, 20 mM KCl, 2 mM MgCl2, 1 mM DTT, 100 ug/ml BSA, 0.8 U RNasin (or conditions of earlier work, ref 21), 37 C, 30 min; settings: protein: recombinant;recombinant;recombinant; tags: pET29a vector;pAE vector;pET28a vector; chain copies: 3;3;3; label: 5'-32P; single strand
PaSBDS [12] = target: T1, PaSBDS; assay: EMSA; 200 pmol; smear, low stability complex; 1 pmol RNA in 20 ul; 20 mM Tris-HCl pH 8.0, 20 mM KCl, 2 mM MgCl2, 1 mM DTT, 100 ug/ml BSA, 0.8 U RNasin (or conditions of earlier work, ref 21), 37 C, 30 min; settings: protein: recombinant; tags: pET-28a vector, Ni-NTA purified (His tag); label: 5'-32P; single strand
PaRrp41;PaRrp42 [13] = target: T4, PaRrp41;PaRrp42; assay: EMSA; no phosphate added; PaRrp4-exosome binds 3-fold more efficiently; some RNA degradation; 1 pmol RNA in 20 ul; 20 mM Tris-HCl pH 8.0, 20 mM KCl, 2 mM MgCl2, 1 mM DTT, 100 ug/ml BSA, 0.8 U RNasin (or conditions of earlier work, ref 21), 37 C, 30 min; settings: protein: recombinant;recombinant; tags: pET29a vector;pAE vector; chain copies: 3;3; label: 5'-32P; single strand

inhibition of the RNase activity on 14-mer poly-rA (1, 5 or 10 pmol complex, 65°C, 10 mM NaH2PO4) by 100 pmol PaNip7 [1]: 3.8 fold | inhibition of the RNase activity on 14-mer poly-rA (1, 5 or 10 pmol complex, 65°C, 10 mM NaH2PO4) by 100 pmol PaNip7 [2]: 6.1 fold | decrease in poly-rA binding by the exosome complex (EMSA, 1-20 pmol complex) in the presence of 100 pmol PaNip7 [3]: 40 fold | decrease in poly-rA binding by the exosome complex (EMSA, 1-20 pmol complex) in the presence of 100 pmol PaNip7 [4]: 20 fold | decrease in poly-rA binding by the exosome complex (EMSA, 1-20 pmol complex) in the presence of 100 pmol PaNip7 [5]: 3 fold
Molecule: PaNip7 (natural protein)

Molecule: UUAUUAUUUAUUUAUUAUUUA (ssRNA) [poly-rAU 21-mer]
binding result (PaSBDS [6]; can form intra- and inter-strand base pairs of low stability): binds | binding result (PaRrp41;PaRrp42;PaRrp4 [7]): binds | binding result (PaRrp41;PaRrp42;PaCsl4 [8]): binds | binding result (PaRrp41;PaRrp42 [9]): binds

Molecule: CCCCCCCCCCCCC (ssRNA) [poly-rC 13-mer]
binding result (PaSBDS [6]; single strand): no binding

Molecule: AAAAAAAAAAAAAA (ssRNA) [poly-rA 14-mer]
binding signal (PaRrp41;PaRrp42;PaRrp4 [10]): 3 fold vs RNase PH ring | binding signal (PaRrp41;PaRrp42;PaCsl4 [11]): 9 fold less efficient than PaRrp4-exosome | binding result (PaSBDS [12]): binds | binding result (PaRrp41;PaRrp42 [13]): binds

— article PMC2890523, “Identification of archaeal proteins that affect the exosome function in vitro”
